Assay [1] addresses T1, oxidation resistance 1, transcript variant 1 (human, UniProt Q8N573 90-874, limits assumed).
T1 construct: also called OXR1
T1 sequence: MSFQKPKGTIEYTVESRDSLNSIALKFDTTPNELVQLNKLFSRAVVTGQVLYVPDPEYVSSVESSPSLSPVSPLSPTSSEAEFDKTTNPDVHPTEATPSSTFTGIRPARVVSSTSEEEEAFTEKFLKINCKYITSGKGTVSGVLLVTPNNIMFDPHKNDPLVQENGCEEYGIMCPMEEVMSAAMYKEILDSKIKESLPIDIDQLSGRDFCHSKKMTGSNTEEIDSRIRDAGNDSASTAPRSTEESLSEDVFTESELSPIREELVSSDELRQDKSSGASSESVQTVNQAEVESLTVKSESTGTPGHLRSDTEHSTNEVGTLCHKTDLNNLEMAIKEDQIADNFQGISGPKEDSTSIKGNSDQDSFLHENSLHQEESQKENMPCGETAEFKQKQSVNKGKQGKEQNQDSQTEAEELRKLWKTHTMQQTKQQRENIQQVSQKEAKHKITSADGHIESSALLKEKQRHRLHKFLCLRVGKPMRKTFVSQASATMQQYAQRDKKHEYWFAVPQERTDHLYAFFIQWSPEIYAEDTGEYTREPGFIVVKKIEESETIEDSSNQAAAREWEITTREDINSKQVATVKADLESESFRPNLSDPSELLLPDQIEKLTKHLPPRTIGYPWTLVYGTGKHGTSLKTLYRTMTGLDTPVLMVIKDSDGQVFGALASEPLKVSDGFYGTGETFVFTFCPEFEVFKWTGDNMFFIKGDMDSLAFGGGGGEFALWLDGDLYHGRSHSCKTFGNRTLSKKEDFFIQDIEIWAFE

For assay [2], the target named is T2, neural retina leucine zipper, transcript variant X4 (human, UniProt P54845 1-237).
T2 construct: also called NRL

Assay [3] addresses T3, HSPA (Hsp70) binding protein 1, transcript variant 2 (human, UniProt Q9NZL4 1-359).
T3 construct: also called HSPBP1
T3 sequence: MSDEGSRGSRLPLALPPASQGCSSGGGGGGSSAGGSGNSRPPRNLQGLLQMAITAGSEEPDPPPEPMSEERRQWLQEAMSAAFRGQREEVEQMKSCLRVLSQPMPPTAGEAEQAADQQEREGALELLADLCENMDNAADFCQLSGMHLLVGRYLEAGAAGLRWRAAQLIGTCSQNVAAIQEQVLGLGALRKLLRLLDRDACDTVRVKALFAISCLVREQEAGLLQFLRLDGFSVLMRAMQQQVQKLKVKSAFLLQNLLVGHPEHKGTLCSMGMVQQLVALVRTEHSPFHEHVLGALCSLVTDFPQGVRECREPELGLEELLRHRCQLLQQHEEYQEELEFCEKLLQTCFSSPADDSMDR

Assay [4] deals with T4, BCL2 associated athanogene 2 (human, UniProt O95816 2-211).
T4 construct: also called BAG2

Assay [5] has as its target T5, heat shock protein family A (Hsp70) member 2 (human, UniProt P54652 1-639).
T5 construct: also called HSPA2

Assay [6] addresses T6, coiled-coil domain containing 74B, transcript variant 2 (human, UniProt Q96LY2 1-380).
T6 construct: also called CCDC74B

In assay [7] the target is T7, Kirre like nephrin family adhesion molecule 1 (human, UniProt Q96J84 17-757, limits assumed).
T7 sequence: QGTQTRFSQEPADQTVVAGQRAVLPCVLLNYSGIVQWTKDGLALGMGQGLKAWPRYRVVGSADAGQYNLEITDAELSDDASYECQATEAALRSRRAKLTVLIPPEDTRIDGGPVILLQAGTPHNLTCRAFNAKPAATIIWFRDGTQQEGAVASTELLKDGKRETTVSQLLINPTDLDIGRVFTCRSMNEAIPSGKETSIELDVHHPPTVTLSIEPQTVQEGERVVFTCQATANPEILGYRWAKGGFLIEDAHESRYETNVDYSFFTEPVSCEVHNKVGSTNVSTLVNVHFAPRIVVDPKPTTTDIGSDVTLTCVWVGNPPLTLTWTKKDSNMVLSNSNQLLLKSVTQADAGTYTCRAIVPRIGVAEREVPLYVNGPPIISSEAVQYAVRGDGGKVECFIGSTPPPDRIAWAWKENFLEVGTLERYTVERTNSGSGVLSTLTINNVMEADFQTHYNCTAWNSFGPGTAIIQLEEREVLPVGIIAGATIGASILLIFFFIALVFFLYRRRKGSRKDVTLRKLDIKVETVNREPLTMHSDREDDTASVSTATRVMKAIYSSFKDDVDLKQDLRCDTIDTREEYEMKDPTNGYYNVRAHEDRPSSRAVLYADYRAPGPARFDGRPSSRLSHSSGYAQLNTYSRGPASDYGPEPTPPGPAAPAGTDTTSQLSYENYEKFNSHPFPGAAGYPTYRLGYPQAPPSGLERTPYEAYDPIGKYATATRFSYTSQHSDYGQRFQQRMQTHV

For assay [8], the target named is T8, Ankyrin repeat domain 20 family member a5, pseudogene (human, UniProt A0PJZ0 1-165).
T8 construct: also called ANKRD20A5P

Assay [9] has as its target T9, GRB10 interacting GYF protein 1, transcript variant X10 (human, UniProt O75420 1-1035).
T9 construct: also called GIGYF1
T9 sequence: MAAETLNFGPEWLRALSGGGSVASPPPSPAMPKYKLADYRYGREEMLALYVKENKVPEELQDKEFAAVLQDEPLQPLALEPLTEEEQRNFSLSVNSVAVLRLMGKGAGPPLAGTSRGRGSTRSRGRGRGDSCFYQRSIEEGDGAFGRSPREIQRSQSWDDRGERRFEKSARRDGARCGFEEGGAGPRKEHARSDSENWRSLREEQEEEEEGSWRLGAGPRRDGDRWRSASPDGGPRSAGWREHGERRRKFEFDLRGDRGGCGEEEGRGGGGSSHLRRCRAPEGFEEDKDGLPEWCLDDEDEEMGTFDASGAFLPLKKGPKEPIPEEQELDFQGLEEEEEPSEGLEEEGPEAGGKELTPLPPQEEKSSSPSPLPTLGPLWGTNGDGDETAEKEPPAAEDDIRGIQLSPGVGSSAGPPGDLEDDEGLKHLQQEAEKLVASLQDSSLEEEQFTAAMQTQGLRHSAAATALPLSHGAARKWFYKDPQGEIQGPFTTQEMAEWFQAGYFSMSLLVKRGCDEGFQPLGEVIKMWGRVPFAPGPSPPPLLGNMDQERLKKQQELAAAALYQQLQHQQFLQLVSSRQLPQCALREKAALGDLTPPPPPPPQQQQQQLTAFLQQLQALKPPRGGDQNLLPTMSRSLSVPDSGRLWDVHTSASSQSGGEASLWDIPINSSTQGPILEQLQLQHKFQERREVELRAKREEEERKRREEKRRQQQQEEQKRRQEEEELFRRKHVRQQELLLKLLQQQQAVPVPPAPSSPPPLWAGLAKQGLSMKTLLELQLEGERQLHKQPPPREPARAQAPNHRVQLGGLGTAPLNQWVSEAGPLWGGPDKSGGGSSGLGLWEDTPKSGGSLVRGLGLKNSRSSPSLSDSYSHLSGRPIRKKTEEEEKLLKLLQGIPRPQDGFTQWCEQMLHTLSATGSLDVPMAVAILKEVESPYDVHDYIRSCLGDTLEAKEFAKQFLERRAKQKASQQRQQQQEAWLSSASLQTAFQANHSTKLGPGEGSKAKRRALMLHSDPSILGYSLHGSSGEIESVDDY

Assay [10] deals with T10, killer cell lectin like receptor C1, transcript variant 3 (human, UniProt P26715 1-233).
T10 construct: also called KLRC1

Assay [11] addresses T11, Egf like and emi domain containing 1, pseudogene (human, UniProt Q0D2K5 1-195).
T11 construct: on protein array; also called EGFEM1P
T11 sequence: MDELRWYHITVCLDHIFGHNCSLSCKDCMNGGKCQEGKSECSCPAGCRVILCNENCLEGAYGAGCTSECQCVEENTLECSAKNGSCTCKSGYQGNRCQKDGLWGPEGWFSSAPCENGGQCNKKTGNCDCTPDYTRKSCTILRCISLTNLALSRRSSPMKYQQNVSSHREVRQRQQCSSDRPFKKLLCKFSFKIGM
The assay is described as follows: protein array.

T4 sequence (O95816 2-211 limits assumed): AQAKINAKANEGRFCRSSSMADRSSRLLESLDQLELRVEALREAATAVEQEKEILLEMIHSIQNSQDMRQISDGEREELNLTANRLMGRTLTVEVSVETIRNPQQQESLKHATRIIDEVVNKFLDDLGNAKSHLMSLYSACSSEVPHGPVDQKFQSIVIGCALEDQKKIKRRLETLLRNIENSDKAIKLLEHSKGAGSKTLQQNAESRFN
T6 sequence (Q96LY2 other isoform, or with tags, fused parts or gaps mutant limits assumed): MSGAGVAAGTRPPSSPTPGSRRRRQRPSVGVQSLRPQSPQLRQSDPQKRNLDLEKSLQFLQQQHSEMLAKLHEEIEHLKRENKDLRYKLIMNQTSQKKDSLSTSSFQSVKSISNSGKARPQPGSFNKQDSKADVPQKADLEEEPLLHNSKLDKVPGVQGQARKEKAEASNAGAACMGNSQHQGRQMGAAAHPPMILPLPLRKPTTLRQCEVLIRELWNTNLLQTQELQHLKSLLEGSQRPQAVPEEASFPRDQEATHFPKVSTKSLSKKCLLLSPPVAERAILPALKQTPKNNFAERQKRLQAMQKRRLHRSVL
T2 sequence (P54845 whole entry, change not shown): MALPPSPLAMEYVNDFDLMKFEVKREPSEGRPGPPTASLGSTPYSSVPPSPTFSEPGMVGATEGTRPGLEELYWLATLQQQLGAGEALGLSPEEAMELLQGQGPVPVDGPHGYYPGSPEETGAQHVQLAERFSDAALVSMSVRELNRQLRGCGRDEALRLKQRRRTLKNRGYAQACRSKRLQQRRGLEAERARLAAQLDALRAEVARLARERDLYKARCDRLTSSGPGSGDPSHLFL
T5 sequence (P54652 whole entry): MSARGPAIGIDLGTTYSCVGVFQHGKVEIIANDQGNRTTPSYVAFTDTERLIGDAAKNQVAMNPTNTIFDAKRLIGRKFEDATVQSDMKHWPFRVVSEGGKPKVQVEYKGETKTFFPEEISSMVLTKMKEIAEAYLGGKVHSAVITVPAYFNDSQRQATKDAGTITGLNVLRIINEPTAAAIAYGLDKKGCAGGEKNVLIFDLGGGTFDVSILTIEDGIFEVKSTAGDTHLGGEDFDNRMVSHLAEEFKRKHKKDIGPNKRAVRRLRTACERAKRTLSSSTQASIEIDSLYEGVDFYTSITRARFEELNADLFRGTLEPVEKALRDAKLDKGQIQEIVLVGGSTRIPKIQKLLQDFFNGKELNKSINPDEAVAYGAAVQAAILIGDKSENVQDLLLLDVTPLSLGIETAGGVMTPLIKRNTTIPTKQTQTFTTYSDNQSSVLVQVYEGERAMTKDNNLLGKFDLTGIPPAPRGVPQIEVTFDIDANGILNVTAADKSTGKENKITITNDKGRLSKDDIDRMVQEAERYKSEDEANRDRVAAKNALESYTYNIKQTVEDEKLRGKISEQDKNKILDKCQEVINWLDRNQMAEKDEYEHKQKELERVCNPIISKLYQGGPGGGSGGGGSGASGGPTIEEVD
T10 sequence (P26715 other isoform, or with tags, fused parts or gaps mutant limits assumed): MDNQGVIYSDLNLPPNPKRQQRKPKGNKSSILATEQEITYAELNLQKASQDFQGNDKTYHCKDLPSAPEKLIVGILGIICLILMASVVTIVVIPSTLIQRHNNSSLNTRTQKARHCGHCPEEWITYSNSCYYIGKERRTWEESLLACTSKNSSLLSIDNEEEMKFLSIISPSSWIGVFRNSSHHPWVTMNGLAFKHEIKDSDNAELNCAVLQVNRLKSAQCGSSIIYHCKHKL
T8 sequence (A0PJZ0 whole entry, the tested form may be a part): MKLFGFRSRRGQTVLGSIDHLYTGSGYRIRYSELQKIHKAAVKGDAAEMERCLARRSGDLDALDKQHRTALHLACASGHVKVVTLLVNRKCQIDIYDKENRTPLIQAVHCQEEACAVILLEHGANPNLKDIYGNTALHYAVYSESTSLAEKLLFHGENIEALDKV

B1: TPRO1001 (antibody, V domains shown)
VH: EVQLVQSGAEVKKPGESLRISCKGSGYSFTSFWISWVRQMPGKGLEWMGRIDPSDSYTNYSPSFQGHVTISADKSISTAFLQWSSLKASDTAMYYCARHQQKYSPISPLDYWGQGTLVTVSS
VL: QSALTQPASVSGSPGQSITISCTGTSSDVGGYNYVSWYQQHPGKAPKLMIYDVSNRPSGVSNRFSGSKSGNTASLTISGLQAEDEADYYCSSYTSSSSLVFGGGTKVTVLG
Consider B1, for which the binding result in assay [1] is listed as “binds”.

B2: TSAR1001 (antibody, V domains shown)
VH: EVQLVESGGGMVQPGESLRLSCAASGFDFTSYWMAWVRQAPGKGLEWVANMNADGSEKHYVDSVKGRFSISRDNAKKLLFLQMNSLTVDDTGVYYCARDEGRREGAWGQGTQVIVSA
VL: EIVLTQSPATLSFSPGDRATLSCRASQNINRFLAWYQQKPGQTPRLLIYDASTRATGIPARFSGSGSGTDFSLIISSLEPEDFAIYYCQQRNNWPITFGPGTKVDVK
Turning to B2, in [2], the binding result is listed as “binds”.

B3: TSAR1005 (antibody, V domains shown)
VH: QVQLVESGGGVVQPGRSLRLSCVASGFTFSNYAMHWVRQAPGKGLEWVAVIWYDGSNEYYRDSVEGRFTISRDSSKNTLYLLVNSLRAEDTAVYYCARGNGPKSGKYSDFDYWGQGTLVTVSS
VL: DVVMTQSPLSLPVTLGQAASISCRSSQSLVYSDGNTYLNWFQQRPGQSPRRLIYKVSNRESGVPDRFSGSGSGTDFTLQISRVEAEDVGIYYCMQGAHWPPITFGQGTRLEIKR
On to B3, for which the binding result in assay [3], in [4] and in [5] was “binds” throughout.

B4: TSAR1003 (antibody, V domains shown)
VH: QLQLQESGPGLVKPSETLSLTCTVSGVSIGTSSYYWGWIRQPPAKGLEWIGSIYYSGSTYYNPSLKNRVTISVDTSKNHFSLKLSSVTAADTAVYYCARHRTGQYYYNSWGQGTLVTVSS
VL: SSELTQDPAVSVALGQTVRITCQGDSLRTDYATWYQQKPGQAPILVFYGEDNRPSGIPDRFSGSSSGNTASLTITGAQAEDEADYYCNSRDSSGHHWVFGGGTKLTVL
Turning to B4, the binding result in assay [6] was “binds”.

B5: TPRO1002 (antibody, V domains shown)
VH: EVQLVESGGGVIKPGGSLKLSCEGSGFTLDDYVMHWVRQAPGKGLEWISSISGDGTRTYYADSVKGRFTISRNNGKNSLYLQMDSLRREDTALYYCAKDARLAYYGMDVWGQGTTVTVSS
VL: QSALTQPASVSGSPGQSITISCTGTSSDIGGYDLVSWYQHHPGKAPKLVISEGSKRPSGVSNRFFGSKSGNTASLTISGLQAEDEADYYCCSFTGTSTFVFGTGTKVTVL
Turning to B5, the binding result in [7], in [8] and in assay [9] was “binds” in each case.

B6: TREC1003 (antibody, V domains shown)
VH: QVQLVQSGSEVKKPGASVRLACKTSGYTFSNYGVSWVRQGPGRGLEWLGWISGYNGRTHSADKFRDRVTLTTDTSTTTVYVDLKNLTSDDTAVYYCARVGTSHWYSDSWGQGTLVTVSS
VL: QSVLTQPPSVSGAPGQRVTISCAGSYSNIGAGYDVHWYRQLPGTAPTLLIYSNNNRPSGVSDRFSGSKSGTSASLAITGLQAEDEADYYCQSFDSSLSRSVFGTGTKVTVL
On to B6, for which the binding result in assay [10] is recorded as “binds”.

B7: TBRE1036 (antibody, V domains shown)
VH: QVQLVESGGGVVQPGRSLRLSCAASGFTFSSYAMHWVRQAPGKGLEWVAVISYDGSNKYYADSLKGRFTISRDNSKDTLYLQVNSLRPEDTAVYYCARVNIAAAGTLDYWGQGTLVTVSS
VL: EIVLTQSPGTLSLSPGERATLSCRASQSVSSRYLAWYQQKPGQAPRLLIHGASSRATGIPDRFSGSGSGTDFTLTISRLEPEDFAVYYCQQYGSAWTFGQGTKVEIKR
notes: VH/VL only
Regarding B7, the binding result in assay [11] was “binds”.

The values above are taken from patent publication US20220204643A1 (published 2022).
